In patent publication US20210395392A1 (Bristol-Myers Squibb, published 2021):

T1: Mouse MerTK on mMerTK-expressing cells (mouse, UniProt Q60805 19-994)
T1 sequence: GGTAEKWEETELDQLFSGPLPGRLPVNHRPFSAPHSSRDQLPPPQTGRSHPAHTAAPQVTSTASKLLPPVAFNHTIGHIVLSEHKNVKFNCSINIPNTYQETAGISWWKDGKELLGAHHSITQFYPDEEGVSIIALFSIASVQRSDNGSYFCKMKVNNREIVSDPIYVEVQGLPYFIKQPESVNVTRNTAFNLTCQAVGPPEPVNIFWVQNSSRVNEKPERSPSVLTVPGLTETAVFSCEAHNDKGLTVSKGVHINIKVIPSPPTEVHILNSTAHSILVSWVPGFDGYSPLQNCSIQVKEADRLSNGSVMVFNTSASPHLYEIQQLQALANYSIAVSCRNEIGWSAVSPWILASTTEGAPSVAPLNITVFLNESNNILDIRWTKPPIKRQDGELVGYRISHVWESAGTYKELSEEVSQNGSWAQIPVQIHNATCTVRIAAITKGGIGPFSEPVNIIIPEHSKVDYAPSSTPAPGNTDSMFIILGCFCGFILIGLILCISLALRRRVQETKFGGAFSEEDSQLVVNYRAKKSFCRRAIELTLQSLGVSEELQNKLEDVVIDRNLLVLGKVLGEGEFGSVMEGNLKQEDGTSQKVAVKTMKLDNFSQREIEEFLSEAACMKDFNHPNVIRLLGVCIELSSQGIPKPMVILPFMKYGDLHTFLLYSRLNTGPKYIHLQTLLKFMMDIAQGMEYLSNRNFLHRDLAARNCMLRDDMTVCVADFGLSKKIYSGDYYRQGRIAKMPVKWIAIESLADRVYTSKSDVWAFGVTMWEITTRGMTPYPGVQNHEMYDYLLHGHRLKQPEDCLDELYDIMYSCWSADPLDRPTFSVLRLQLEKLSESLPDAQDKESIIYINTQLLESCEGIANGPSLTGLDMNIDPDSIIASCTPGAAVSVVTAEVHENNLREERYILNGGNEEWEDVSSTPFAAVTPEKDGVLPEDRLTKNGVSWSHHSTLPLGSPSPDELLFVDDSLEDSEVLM

T2: Human MerTK on hMerTK-expressing cells (human, UniProt Q12866 21-999)
T2 sequence: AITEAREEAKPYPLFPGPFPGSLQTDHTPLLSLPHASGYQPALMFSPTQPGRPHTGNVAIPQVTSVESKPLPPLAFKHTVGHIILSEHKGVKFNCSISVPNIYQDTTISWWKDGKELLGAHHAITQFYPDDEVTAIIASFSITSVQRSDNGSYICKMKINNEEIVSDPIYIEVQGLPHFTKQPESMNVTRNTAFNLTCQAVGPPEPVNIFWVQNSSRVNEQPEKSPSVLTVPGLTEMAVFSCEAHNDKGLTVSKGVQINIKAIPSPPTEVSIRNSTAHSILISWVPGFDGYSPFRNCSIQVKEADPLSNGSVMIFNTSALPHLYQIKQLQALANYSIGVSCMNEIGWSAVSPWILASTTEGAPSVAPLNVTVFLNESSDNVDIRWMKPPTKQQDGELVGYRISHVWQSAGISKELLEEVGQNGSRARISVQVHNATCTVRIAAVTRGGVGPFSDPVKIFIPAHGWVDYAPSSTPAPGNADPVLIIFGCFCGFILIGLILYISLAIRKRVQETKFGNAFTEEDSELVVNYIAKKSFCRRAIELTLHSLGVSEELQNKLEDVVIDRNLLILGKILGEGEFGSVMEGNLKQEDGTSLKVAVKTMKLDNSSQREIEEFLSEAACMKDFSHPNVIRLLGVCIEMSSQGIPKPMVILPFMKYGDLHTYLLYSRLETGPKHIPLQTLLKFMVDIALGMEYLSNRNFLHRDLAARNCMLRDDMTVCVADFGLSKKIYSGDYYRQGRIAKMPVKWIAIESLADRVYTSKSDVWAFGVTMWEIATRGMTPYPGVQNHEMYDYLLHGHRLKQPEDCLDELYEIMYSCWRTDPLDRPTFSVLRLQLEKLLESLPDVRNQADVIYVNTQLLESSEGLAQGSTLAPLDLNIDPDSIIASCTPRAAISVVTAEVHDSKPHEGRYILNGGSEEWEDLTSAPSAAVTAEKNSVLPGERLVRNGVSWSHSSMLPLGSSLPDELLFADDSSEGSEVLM

T3: Recombinant soluble extracellular domain of cynomolgus monkey MerTK (cynomolgus monkey, UniProt Q12866 21-505 (human entry))
T3 construct: SPR analyte; also called cMerTK; Cynomolgus MerTK
T3 chain: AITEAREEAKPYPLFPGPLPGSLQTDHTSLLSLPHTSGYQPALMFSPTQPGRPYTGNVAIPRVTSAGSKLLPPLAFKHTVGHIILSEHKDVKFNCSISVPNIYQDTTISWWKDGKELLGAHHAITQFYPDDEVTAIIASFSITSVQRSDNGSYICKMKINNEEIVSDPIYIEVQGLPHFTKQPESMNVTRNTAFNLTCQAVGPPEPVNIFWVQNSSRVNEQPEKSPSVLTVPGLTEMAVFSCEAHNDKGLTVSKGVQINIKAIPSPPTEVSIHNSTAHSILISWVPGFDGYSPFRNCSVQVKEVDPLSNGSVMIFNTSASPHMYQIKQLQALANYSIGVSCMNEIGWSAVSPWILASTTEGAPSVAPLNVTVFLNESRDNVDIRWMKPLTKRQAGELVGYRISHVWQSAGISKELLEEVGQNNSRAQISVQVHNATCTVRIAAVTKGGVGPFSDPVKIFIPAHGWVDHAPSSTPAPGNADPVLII

T4: Recombinant soluble extracellular domain of mouse MerTK (mouse, UniProt Q60805 19-497)
T4 construct: SPR analyte; also called mMerTK
T4 sequence: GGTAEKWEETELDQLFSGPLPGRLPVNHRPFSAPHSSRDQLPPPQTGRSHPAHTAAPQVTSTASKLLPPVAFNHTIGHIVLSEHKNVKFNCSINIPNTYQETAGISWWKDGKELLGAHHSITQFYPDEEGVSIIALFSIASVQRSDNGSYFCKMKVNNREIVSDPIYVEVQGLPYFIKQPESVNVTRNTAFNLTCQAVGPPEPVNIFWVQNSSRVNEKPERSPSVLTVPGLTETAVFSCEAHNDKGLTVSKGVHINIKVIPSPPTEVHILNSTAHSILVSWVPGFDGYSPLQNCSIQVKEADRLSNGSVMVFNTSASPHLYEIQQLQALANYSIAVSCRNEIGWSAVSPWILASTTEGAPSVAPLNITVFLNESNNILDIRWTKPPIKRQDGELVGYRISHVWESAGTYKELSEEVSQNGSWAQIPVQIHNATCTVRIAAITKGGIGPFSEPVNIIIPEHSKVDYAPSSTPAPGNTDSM

T5: Recombinant soluble extracellular domain of human MerTK (human, UniProt Q12866 21-505)
T5 construct: SPR analyte; also called hMerTK
T5 sequence: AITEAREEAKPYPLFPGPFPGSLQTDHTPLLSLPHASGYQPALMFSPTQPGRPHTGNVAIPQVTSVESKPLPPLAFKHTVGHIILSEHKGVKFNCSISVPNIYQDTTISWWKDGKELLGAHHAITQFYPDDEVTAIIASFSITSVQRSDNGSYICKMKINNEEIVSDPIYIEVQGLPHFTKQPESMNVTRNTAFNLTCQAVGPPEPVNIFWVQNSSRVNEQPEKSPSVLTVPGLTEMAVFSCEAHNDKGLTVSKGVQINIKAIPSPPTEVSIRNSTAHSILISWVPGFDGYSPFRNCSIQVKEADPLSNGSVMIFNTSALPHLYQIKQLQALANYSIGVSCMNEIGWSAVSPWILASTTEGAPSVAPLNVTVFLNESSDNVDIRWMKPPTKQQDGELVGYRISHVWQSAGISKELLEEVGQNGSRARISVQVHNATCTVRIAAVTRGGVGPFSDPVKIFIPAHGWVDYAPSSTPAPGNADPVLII


Experiments:
[1] = molecular target: T1, Mouse MerTK on mMerTK-expressing cells; experiment: cell-based or functional assay
[2] = molecular target: T2, Human MerTK on hMerTK-expressing cells; experiment: cell-based or functional assay
[3] = molecular target: T3, Recombinant soluble extracellular …; experiment: SPR, soluble MerTK ECD; format for mouse mAbs not detailed
[4] = molecular target: T4, Recombinant soluble extracellular …; experiment: as above
[5] = molecular target: T5, Recombinant soluble extracellular …; experiment: as above
[6] = molecular target: T2, Human MerTK on hMerTK-expressing cells; experiment: binding to hMerTK-expressing cells

Signaling Assay, mMerTK with Gas6, pSTAT1 IC50 (nM) [1] [nM] | Inhibition of Efferocytosis IC50 [2] [nM] | Signaling Assay, hMerTK with Gas6, pSTAT1 IC50 (nM) [2] [nM] | Signaling Assay, hMerTK without Gas6, pSTAT1 IC50 (nM) [2] [nM] | Kd [3] [nM] | koff [3] [s⁻¹] | kon [3] [M⁻¹ s⁻¹] | t1/2 [3] [min] | Kd [4] [nM] | koff [4] [s⁻¹] | kon [4] [M⁻¹ s⁻¹] | t1/2 [4] [min] | koff [5] [s⁻¹] | t1/2 [5] [min] | binding result [6] | Kd [5] [nM] | Binder
1.86 | 0.632 | 1.52 | > 100 | 40 | 0.00112 | 28400 | 10.3 | 9.7 | 0.00133 | 137000 | 8.7 | 0.00114 | 10.1 | – | – | MoMAb 4E9 (antibody, V domains shown, Mouse mAb; Bin 2) VH: QIQLVQSGPELKKPGETVKISCKASGNTFTTYGMSWVKQAPGKNLKWMGWINNYSGVSTYADDFKGRFAFSLETSATTAYLQINNLTNEDSATYFCARDYYGSGGWVFDYWGQGTTLTVSS VL: not shown
0.9 | – | > 100 | > 100 | > 100 | – | – | – | 35.1 | 0.00256 | 72700 | 4.5 | – | – | no binding | > 250 | MoMAb 16B9 (antibody, V domains shown, Mouse mAb) VH: EVQLQQSRPDLVKPGASVKMSCKASGYTFIDYNMHWVKQRHGKSLEWIGYIHPNNGGTSYNQKFKDKATLTMNKSSSTAYMELRSLTSEDSAVYYCSRSGIYYDYDSFFDYWGQGTTLTVSS VL: DIQMTQSPASLYVSVGETVTITCRASENIYSHLAWYQQKLGKSPHLLVYAATNLADGVPSRFSGSGSGTQYSLKINSLQSEDFGSYYCQHFWGSPWTFGGGTKLEIK
2.07 | 0.528 | 1.44 | > 100 | 12 | 0.00064 | 53300 | 18 | 3.2 | 0.000403 | 126000 | 28.7 | 0.00064 | 18.2 | – | – | MoMAb 2D9 (antibody, V domains shown, Mouse mAb; Bin 2) VH: QVQLKESGPGLVAPSQSLSITCTVSGISLSSFAISWVRQPPGKGLEWLGVIWTGGGTDYNSALKSRLTISKDTSKNQVFLKMNSLQTDDTARYYCASHWYLDVWGTGTTVTVSS VL: QAVVTQESALTTSPGETVTLTCRSSTGAVSTSNYANWVQEKPDHLFTGLIGGANSRAPGIPARFSGSLIGDKAALTITGAQTEDEAIYFCALWFSNHWVFGGGTKLTVL
